For the experiment, the target named is T1, S.c. Mon1–Ccz1 complex (wild type) (Saccharomyces cerevisiae, UniProt P53129;P38273).
T1 sequence 1: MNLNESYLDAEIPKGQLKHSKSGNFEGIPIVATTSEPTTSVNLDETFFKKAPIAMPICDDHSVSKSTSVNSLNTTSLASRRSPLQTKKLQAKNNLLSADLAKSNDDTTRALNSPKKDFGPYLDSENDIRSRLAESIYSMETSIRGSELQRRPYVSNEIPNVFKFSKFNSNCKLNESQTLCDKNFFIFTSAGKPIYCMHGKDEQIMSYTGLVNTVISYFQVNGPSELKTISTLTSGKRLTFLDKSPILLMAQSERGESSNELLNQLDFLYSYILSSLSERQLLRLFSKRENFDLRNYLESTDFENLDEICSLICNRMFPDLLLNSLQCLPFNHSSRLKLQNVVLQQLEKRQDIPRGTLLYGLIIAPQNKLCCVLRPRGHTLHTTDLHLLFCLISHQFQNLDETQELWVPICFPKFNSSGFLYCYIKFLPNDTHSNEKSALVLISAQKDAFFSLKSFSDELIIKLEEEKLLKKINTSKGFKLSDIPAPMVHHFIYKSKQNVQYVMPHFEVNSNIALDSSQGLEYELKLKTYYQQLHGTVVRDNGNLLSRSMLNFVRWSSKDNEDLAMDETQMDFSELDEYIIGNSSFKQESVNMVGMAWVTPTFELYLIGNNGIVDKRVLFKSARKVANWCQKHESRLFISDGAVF
T1 sequence 2: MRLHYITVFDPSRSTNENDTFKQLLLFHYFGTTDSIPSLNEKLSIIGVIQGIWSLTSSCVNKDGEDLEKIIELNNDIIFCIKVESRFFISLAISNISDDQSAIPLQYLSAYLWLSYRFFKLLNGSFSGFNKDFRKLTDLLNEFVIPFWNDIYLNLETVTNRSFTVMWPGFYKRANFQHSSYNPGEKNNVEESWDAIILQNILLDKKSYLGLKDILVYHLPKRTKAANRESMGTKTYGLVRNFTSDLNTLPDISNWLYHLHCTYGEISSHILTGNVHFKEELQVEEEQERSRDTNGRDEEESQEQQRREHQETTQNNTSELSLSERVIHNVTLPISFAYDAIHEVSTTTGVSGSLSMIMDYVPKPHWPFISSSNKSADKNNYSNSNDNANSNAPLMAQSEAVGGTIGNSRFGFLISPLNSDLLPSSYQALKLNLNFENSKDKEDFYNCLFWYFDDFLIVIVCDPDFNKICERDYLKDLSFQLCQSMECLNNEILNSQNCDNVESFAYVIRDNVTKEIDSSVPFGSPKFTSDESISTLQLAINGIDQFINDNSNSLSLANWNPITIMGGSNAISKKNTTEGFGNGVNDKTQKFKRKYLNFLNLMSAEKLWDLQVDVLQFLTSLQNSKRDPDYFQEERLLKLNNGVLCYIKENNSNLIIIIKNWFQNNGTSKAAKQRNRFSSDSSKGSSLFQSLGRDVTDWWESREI
Description: pull-down.

Here are results for 1 molecule from article PMC10372576 (Proceedings of the National Academy of Sciences of the …, 2023).

B1: GST-Ypt10 (natural protein)
chain: MEATIKVVLLGDSSVGKTSIVTRLKSGKFLAKHAATIGAAFITKTIEVPSNDSSTEKRIHMEIWDTAGQERYKSLVPMYYRDANIALIVFELGDVSSLQCAKTWFQDLQDRAQGTQVIIVGNKYDLVCEEHSGEVTIPAELQGLPYVAVSAKTGYNFDTLNKIIISLVPESQFKTLSKNNEQGNILEINKKKSGSGCIC
On to B1, for which the binding result was “binds”.
